Data from paper PMC7072329, “Discovery of Kynurenines Containing Oligopeptides as Potent Opioid Receptor Agonists” (Biomolecules, 2020).

Target: T1, μ-opioid receptor (rat (endogenous in rat brain)), P33535
T1 chain: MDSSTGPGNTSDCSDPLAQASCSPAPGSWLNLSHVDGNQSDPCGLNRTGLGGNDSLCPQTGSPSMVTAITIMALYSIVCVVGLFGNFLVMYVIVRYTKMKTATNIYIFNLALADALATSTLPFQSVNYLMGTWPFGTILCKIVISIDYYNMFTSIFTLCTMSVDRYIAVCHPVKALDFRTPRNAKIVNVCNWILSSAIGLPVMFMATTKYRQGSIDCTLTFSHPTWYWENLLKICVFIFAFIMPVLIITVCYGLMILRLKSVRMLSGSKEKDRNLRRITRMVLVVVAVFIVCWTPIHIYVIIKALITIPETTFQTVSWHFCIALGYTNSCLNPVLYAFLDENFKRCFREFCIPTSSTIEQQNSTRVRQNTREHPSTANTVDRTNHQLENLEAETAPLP
Assay: radioligand binding; displacement of [^3H]DAMGO from rat brain membrane homogenate by unlabelled ligand (10^-10 to 10^-5 M); 50 mM Tris-HCl pH 7.4, 35 °C, 45 min; non-specific binding with 10 μM naloxone; IC50 converted into Ki by Cheng-Prusoff, one site competition fit

YPFF (modifications not checked) [endomorphin-2 (EM-2)]
Ki: 3.16 nM
